In patent publication US20230115257A1 (published 2023):

B1: 4-M3-A (antibody, V domains shown)
VH: EVQLQQSGPELVKPGDSVKISCKASGYSFTGYFMNWVMQSHGKSLEWIGRINPNNGETFYNQKFKGKATLTVDKSSDTAHMELRSLTSEDSAVYYCARGGTGTGWGQGTTLTVSS
VL: DILMTQSPSSMSVSLGDTVSITCHASQGISSNIGWLQQKPGKSFKGLIYYGTNLEDGVPSRFSGSGSGADYSLTISSLESEDLADYYCIQYAQFPYTFGGGTKLEIK
B2: 1-B11-A (antibody, V domains shown)
VH: QVQLQQSGPELVKPGASVKISCKASGYTFTDHYINWVKQRPGQGLEWIGWIFPGSGSTYYNEQFKGKATLTVDKSSNTAYMLLSSLTSEDSAVYFCARSGGLRLGFAYWGQGTLVTVSA
VL: DIQMTQTTSSLSASLGDRVTISCRASQDISNYLNWYQQKPDGTVKLLIYYTSRLHSGVPSRFSGSGSGTDYSLTISNLEQEDISTYFCQQVNTLPYTFGGGTKLEIK
B3: 9-F6-A (antibody, V domains shown)
VH: EVQLQQSGPELVKPGASVKMSCKASGYTFTSYIMHWVKQKPGQGLEWIGYILPYNDGTKYNEKFKGKATLTSDKSSSTAYMELRSLTSEDSAVYYCARWGYSNFLDSWGQGTTLTVSS
VL: DIQMTQTTSSLSASLGDRVTISCRASQDINNYLNWYQQKPDGTVKLLIYYTSRLHSGVPSRFSGSGSGTDYSLTIRNLEQEDIATYFCQQGNTLPPTFGGGTKLEIK
B4: 6-O12-A (antibody, V domains shown)
VH: QVQLQQPGTELVKPGASVKLSCKASGYTFTSYWMHWVKQRPGQGLEWIGNINPSNGGTNYNEKFRSKATLTVDKSSSTAYMQLSSLTSEDSAVYYCARLGWFLPLGSWGQGTTLTVSS
VL: QIVLTQSPAIMSASLGEVITLTCSASSSVSYMHWYQQKSGTSPKLLIYSTSNLASGVPSRFSGSGSGTFYSLTISSVEAEDAADYYCHQWSGYMYTFGGGTKLEIK
B5: 1-L10-A (antibody, V domains shown)
VH: EVKLEESGGGLVQPGGSMKLSCVASGFTFNNYWMNWVRQSPEKGLEWVAQMRLKSDNYATHYAESVKGRFTISRDDSKSSVYLQMNNLRAEDTGIYYCIEGYWTYWGQGTLVTVSA
VL: QIVLTQSPAIMSASLGERVTMTCTASSSVSSSYLHWYQQKPGSSPKLWIYSTSNLASGVPARFSGNGSGTSYSLTISSMEAEDAATYYCLQYHRSPPYTFGGGTKLEIK
B6: 4-L4-A (antibody, V domains shown)
VH: QAYLQQSGAELVRPGASVKMSCKASGYTFTSYTVHWVKQTPRQGLEWIGGIYPGNVDTSYNQNFKGKATLTVDKSSSTAYMQLSSLTSEDSAVYFCARDGYYAMDYWGQGTSVTVSS
VL: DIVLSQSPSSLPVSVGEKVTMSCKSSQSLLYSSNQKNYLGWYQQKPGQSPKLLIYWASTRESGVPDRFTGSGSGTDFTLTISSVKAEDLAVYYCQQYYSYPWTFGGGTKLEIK
B7: 8-L17-A (antibody, V domains shown)
VH: EVQLVESGGGLVQPKGSLKLSCAASGFTFNTYAMHWVRQAPGKGLEWVARIRSKSSNYARYYADSVKDRFTISRDDSQSMLYLQMNNLKTEDTAMYYCVRDHDYYGSSYWFAYWGQGTLVTVSA
VL: DVVMTQTPLSLPVSLGDQASISCRSSQSLVHNNGNTYLHWYLQKPGQSPKLLIYKVSNRFSGVPDRFSGSGSGTDFTLKISRVEAEDLGVYFCSQSTHVPWTFGGGTKLEIK
B8: 4-N22-A (antibody, V domains shown)
VH: QVQLQQPGTELVKPGASVKLSCKASGYTFTNYWMYWVKQRPGQGLDWIGNINPSNGGTNYNEKFKSKATLTVDKSSSTAYMQLSSLTSEDSAVYYCARETGNYWGQGTTLTVSS
VL: DILMTQSPSSMSVSLGDTVSISCHASQGISSNIGWLQQKPGKSFKGLIYHGTNLEDGVPSRFSGSGSGADYSLTISSLESEDFADYYCVQYAQFPYTFGGGTKLEIK
B9: 8-H3-A (antibody, V domains shown)
VH: EVQLVESGGGLVQPKGSLKLSCAASGFTFNTYAMHWVRQAPGKGLEWVARIRSKSSNYATYYADSVKDRFTISRDDSQSMLYLQMNNLKTEDTAMYYCVRDHDYYGSSYWFTYWGQGTLVTVSA
VL: DVVMTQTPLSLPVSLGDQASISCRSSQSLVHDNGNTYLHWFLQKPGQSPKLLIYKVSNRFSGVPDRFSGSGSGTDFTLKISRVETEDLGVYFCSQSTHVPWTFGGGTKLEIK
B10: 3-E2-A (antibody, V domains shown)
VH: EVQLQQSGPELVKPGASVKISCKASGYTFTDYYMNWVKQSHGKSLEWIGDINPNNGGTSYTQKFKGKATLTVDKSSSKAYMELRSLTSEDSAVYYCARRGDGHYGGFTYWGQGTLVTVSA
VL: not shown
B11: 2-P2-A (antibody, V domains shown)
VH: EVQLQQSGAELVRPGSSVKMSCKTSGYTFTSYGINWVKQRPGQGLEWIGYIYIGNGYTEYNEKFKGKATLTSDTSSSTAYMQLSSLTSEDSAIYFCARGGVDYWGQGTTLTVSS
VL: DVLMTQTPLSLPVSLGDQASISCRSSQSIVHSNGNTYLEWYLQKPGQSPKLLIYKVSNRFSGVPDRFSGSGSGTDFTLKISRVEAEDLGVYYCFQGSHVPYTFGGGTKLEIK
B12: 2-G20-A (antibody, V domains shown)
VH: EVQLQQSGPELVKPGASVKMSCKASGYTFPSYVLHWVKQKPGQGLEWIGYIYPYNDGTNYNEKFKGKATLTSDKSSSTAYMELSSLTSEDSAVYYCARGDYGDSAWFPYWGQGTLVTVSA
VL: DIVLTQSPASLAVSLGQRATISCRASKSVSTSGYSYMHWYQQKPGQPPKLLIYLASNLKSGVPARFSGGGSGTDFTLNIHPVEEEDAATYYCQLSRELPWTFGGGTKLEIK
B13: 8-H5-A (antibody, V domains shown)
VH: QVTLKESGPGILQSSQTLSLTCSLSGFSLSTSGMGVSWVRQPSGKGLEWLAHIYWDDDKRYTPSLKSRLTISTDSSRKQVFLKITSVDTADTATYYCARRDLHDYDGWFAYWGQGTLVTVSA
VL: DIVMTQSQKFMSTAVGDRVSVTCKASQNVGTNVAWYQQKPGQSPKALIYSASFRYSGVPDRFSGSGSGTDFTLTISNVQSEDLAEYFCQQYNSYPLTFGSGTKLEIK
B14: 2-H7-A (antibody, V domains shown)
VH: QAYLQQSGAELVRPGASVKMSCKASGYTFTGYTMHWVKQTPRQGLEWIGAIYPENGDTSYNQKFKGKATLTVDKSSSTAYMQLSSLTSEDSAVYFCARDGYDVLYGMDYWGQGTSVTVSS
VL: DIVLTQSPASLAVSLGQRATISCRASKSVSTSGYSYMHWYQQKPGQPPKLLIYLASNLESGVPARFSGSGSGTDFTLNIHPVEEEDAATYYCQHSRELPWTFGGGTKLDIK
B15: 2-O12-A (antibody, V domains shown)
VH: EVQLQQSGPELVKPGASVKISCKASGYTFTDYYMNWVKQSHGKSLEWIGDINSNNGGTTYDQKFKGKATLTVDRSSSTAYMELRSLTSEDSAVYYCARRGDGHFGGFTYWGQGTLVTVSA
VL: not shown
B16: 8-A17-A (antibody, V domains shown)
VH: QVQLKESGPGLVAPSQSLSITCTVSGFSLTSYAISWVRQPPGKGLEWLGVVWPGGGTNYNSALKSRLSINKDNSKSQVFLKMNSLQTDDTGRYYCARTGYHFDYWGQGTTLTVSS
VL: QIVLTQSPAIMSASPGEKVTMTCSVSSSVSYMHWYQQKSGTSPKRWIYDTSKLASGVPARFSGSGSGTSYSLTISSMEAEDAATYYCQQWSSNPPMYTFGGGTKLEIK

Experiments:
[1] = molecular target: SARS-CoV-2 (WIV02 isolate) prefusion stabilized spike trimer protein (UniProt P0DTC2 14-1213); assay: ELISA
[2] = molecular target: SARS-CoV-1 spike protein (SARS-CoV-1, UniProt P59594 14-1195); assay: ELISA

Binder | IC50 [1] [nM] | IC50 [2] [nM]
B1 | 7.36 | –
B2 | – | 20.9
B3 | 16.7 | 5.55
B4 | 7.62 | 5.4
B5 | 8.65 | 7.5
B6 | 8.34 | –
B7 | 60.8 | –
B8 | 4.93 | –
B9 | 19.4 | –
B10 | 18.4 | –
B11 | – | 17.9
B12 | 18.3 | 6.65
B13 | 12.8 | –
B14 | 7.21 | –
B15 | 14.9 | –
B16 | – | 5.1
